From US20090291081A1 (AbbVie / Abbott, published 2009)
Where “and” joins values, the source holds several entries; their conditions need not be identical. Equal values may be shown once. Read-outs that look alike come from different tables or passages of the source. Blank lines part the entries; values can stand above or below the binder they belong to.

How the values were obtained:
human IL-1β [1] = target: T1, human IL-1β (human, UniProt P01584 117-269); assay: cell-based or functional assay
human IL-1α [2] = target: T2, human IL-1α (human, UniProt P01583 113-271); assay: cell-based or functional assay
T2 sequence (looked up): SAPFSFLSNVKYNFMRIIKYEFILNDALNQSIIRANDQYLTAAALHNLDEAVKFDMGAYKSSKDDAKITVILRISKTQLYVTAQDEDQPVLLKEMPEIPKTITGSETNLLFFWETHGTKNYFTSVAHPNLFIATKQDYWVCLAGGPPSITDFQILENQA

human IL-1β [3] = target: T1, human IL-1β; assay: cell-based or functional assay; remark: listed apart in the source
human IL-1β [4] = target: T3, human IL-1β (human, UniProt P01584 117-269); assay: BIAcore (SPR)
T3 construct: also called IL-1beta; hIL-1β

human IL-1β [5] = target: T3, human IL-1β; assay: cell-based or functional assay; remark: listed apart in the source
human IL-1α [6] = target: T2, human IL-1α; assay: cell-based or functional assay; remark: listed apart in the source
human IL-1α [7] = target: T2, human IL-1α; assay: cell-based or functional assay; remark: listed apart in the source
human IL-1α [8] = target: T2, human IL-1α; assay: cell-based or functional assay; remark: listed apart in the source
human IL-1α [9] = target: T2, human IL-1α; assay: method not given
human IL-1α [10] = target: T2, human IL-1α; assay: cell-based or functional assay; remark: listed apart in the source
human IL-1β [11] = target: T1, human IL-1β; assay: cell-based or functional assay; remark: listed apart in the source
human IL-1α [12] = target: T2, human IL-1α; assay: Receptor Binding Assay, IgG; value beside the ABT1 clone
human IL-1β [13] = target: T1, human IL-1β; assay: Receptor Binding Assay, IgG; value beside the ABT2 clone
human IL-1α [14] = target: T2, human IL-1α; assay: BIAcore, IL-1α coated chip, dAb flowed over

B2: ABT2-108-620x/ABT1-122 huIgG1/K wt (bispecific antibody, V domains shown)
VH: EVQLLESGGGLVQPGGSLRLSCAASGFTFAEESWMWVRQAPGKGLEWVSRIGQDGKNTYYREDVKGRFTISRDNSKNTLYLQMNSLRAEDTAVYYCAKYTGRIMGHHLFDYWGQGTLVTVSS
VL: DIQMTQSPSSLSASVGDRVTITCRASQPIWTELNWYQQKPGKAPKLLIYGSSSLQSGVPRFSGSGSGTDFTLTISSLQPEDFATYYCQQFAYFPATFGQGTKVEIKR
IL-1α IC50 (human IL-1α [2]): 150 nM
IL-1β IC50 (human IL-1β [3]): 0.05 nM
MRC-5 IL-1β neutralization potency (human IL-1β [1]): ~0.05 nM

B4: ABT2-76 (other)
VL: DIQMTQSPSSLSASVGDRVTITCRASQSIDRWLAWYQQKPGKAPKLLIYRGSILQSGVPSRFSGSGSGTDFTLTISSLQPEDFATYYCQQVAFWPPTFGQGTKVEIKR
notes: VK dAb
Kd (human IL-1β [4]): 1300 nM
MRC5 ND50 (human IL-1β [5]): 456 nM

B5: ABT1-141-47 (other)
VL: DIQMTQSPSSLSASVGDRVTITCRANQWIQKQLAWYQQKPGKAPKLLIYSSSHLQSGVPSRFSGSGSGTDFTLTISSLQPQDFATYYCQQHLRVPMTFGQGTKVEIKR
MRC5 ND50 (human IL-1α [6]): 1 nM

B6: ABT1-141-76 (other)
VL: DIQMTQSPSSLSASVGDRVTITCRANQWIQKQLAWYQQKPGKAPKLLIYSSSHLQSGVPSRFSGSGSGTDFTLTISSLQPEDFATYYCQQHLRVPMTFGQGTKVEIKR
MRC5 ND50 (human IL-1α [6]): 1 nM

B9: ABT1-6-15 (other)
VH: EVQLLESGGGLVQPGGSLRLSCAASGFTFVRYDMAWVRQAPGKGLEWVSSINKSGALTSYADSVKGRFTISRDNSKNTLYLQMNSLRAEDTAVYYCAKGWASFDYWGQGTLVTVSS
MRC5 ND50 (human IL-1α [7]): 2 µM

B10: ABT1-6-3 (other)
VH: EVQLLESGGGLVQPGGSLRLSCAASGFTFGAYDMQWVRQAPGKGLEWVSSIYKSGALTSYADSVKGRFTISRDNSKNTLYLQMNSLRAEDTAVYYCAKGWASFDYWGQGTLVTVSS
MRC5 ND50 (human IL-1α [7]): 0.08 µM

B11: ABT1-95-4 (other)
VL: DIQMTQSPSSLSASVGDRVTITCRASQPIVRNLRWYQQKPGKAPKLLIYSSSYLQSGVPSRFSGSGSGTDFTLTISSLQPEDFATYHCQQGYRWPVTFGQGTKVEIKR
notes: dAb, Vκ, to IL-1α
MRC5 ND50 (human IL-1α [8]): 0.9 nM
Kd (human IL-1α [9]): 0.9 nM

B12: ABT1-141-25 (other)
VL: DIQMTQSPSSLSASVGDRVTITCRASQWIQKQLAWYQQKPGKAPKLLIYSSSYLQSGVPSRFSGSGSGTDFTLTISSLQPEDFATYYCQQHLRVPMTFGQGTKVEIKR
MRC5 ND50 (human IL-1α [6]): 5 nM

B15: ABT2-65-166/ABT1-95-A3 huIgG1/K wt (bispecific antibody, V domains shown)
VH: EVQLLESGGGLVQPGGSLRLSCAASGFTFEDYQMGWVRQAPGKGLEWVSSISAMGGRTYYADSVKGRFTISRDNSKNTLYLQMNSLRAEDTAVYYCAQNLVRLGRSRWMFDYWGQGTLVTVSS
VL: DIQMTQSPSSLSASVGDRVTITCRASKPGVRNMRWYQQKPGKAPKLLIYSVSYLEPGVPSRFSGSGSGTDFTLTISSLQPEDFATYHCLQGYRWPPTFGQGTKVEIKR
notes: hu IgG1/K wt; also called 1-95-A3 / 2-65-166
IL-1α IC50 (human IL-1α [2]): 0.026 nM and 0.0178 nM
IL-1β IC50 (human IL-1β [3]): 0.17 nM
MRC5 IL-1α (human IL-1α [10]): 0.017 nM
MRC5 IL-1β (human IL-1β [11]): 0.15 nM
IC50 (human IL-1α [12]): 0.083 nM
IC50 (human IL-1β [13]): 0.709 nM

B16: IgG pairing ABT1-95-A2 with ABT2-65-166 (bispecific antibody, V domains shown)
VH: EVQLLESGGGLVQPGGSLRLSCAASGFTFEDYQMGWVRQAPGKGLEWVSSISAMGGRTYYADSVKGRFTISRDNSKNTLYLQMNSLRAEDTAVYYCAQNLVRLGRSRWMFDYWGQGTLVTVSS
VL: DIQMTQSPSSLSASVGDRVTITCRILQPPGRNLRWYQQKPGKAPKLLIYSKSFLEPGVPSRFSGSGSGTDFTLTISSLQPEDFATYHCQQGYRWPVTFGQGTKVEIKR
notes: IgG; also called 1-95-A2 / 2-65-166
MRC5 IL-1α (human IL-1α [10]): 0.08 nM
MRC5 IL-1β (human IL-1β [11]): 0.121 nM
IC50 (human IL-1α [12]): 0.067 nM
IC50 (human IL-1β [13]): 0.073 nM

B17: ABT2-65-166/ABT1-95-A6 hu IgG1/K wt (bispecific antibody, V domains shown)
VH: EVQLLESGGGLVQPGGSLRLSCAASGFTFEDYQMGWVRQAPGKGLEWVSSISAMGGRTYYADSVKGRFTISRDNSKNTLYLQMNSLRAEDTAVYYCAQNLVRLGRSRWMFDYWGQGTLVTVSS
VL: DIQMTQSPSSLSASVGDRVTITCRASKPGVRNMRWYQQKPGKAPKLLIYAKSYLEPGVPSRFSGSGSGTDFTLTISSLQPEDFATYHCKQGYRWPVQFGQGTKVEIKR
notes: hu IgG1/K wt; also called 1-95-A6 / 2-65-166
IL-1β IC50 (human IL-1β [3]): 0.32 nM
MRC5 IL-1α (human IL-1α [10]): 0.019 nM
MRC5 IL-1β (human IL-1β [11]): 0.207 nM
IC50 (human IL-1α [12]): 0.108 nM
IC50 (human IL-1β [13]): 0.537 nM

B21: ABT2-108 (other)
VH: EVQLLESGGGLVQPGGSLRLSCAASGFTFAEYTMMWVRQAPGKGLEWVSRIGQDGKNTYYADSVKGRFTISRDNSKNTLYLQMNSLRAEDTAVYYCAKYTGRVGVHHLFDYWGQGTLVTSS
notes: VH dAb
Kd (human IL-1β [4]): 110 nM
MRC5 ND50 (human IL-1β [5]): 200 nM

B22: ABT2-108-620x/ABT1-122-511 huIgG1/K wt (bispecific antibody, V domains shown)
VH: EVQLLESGGGLVQPGGSLRLSCAASGFTFAEESWMWVRQAPGKGLEWVSRIGQDGKNTYYREDVKGRFTISRDNSKNTLYLQMNSLRAEDTAVYYCAKYTGRIMGHHLFDYWGQGTLVTVSS
VL: DIQMTQSPSSLSASVGDRVTITCRASQPIWTELNWYQQKPGKAPKLLIYGSSSLQRGVPSRFSGSGSGTDFTLTISSLQPEDFATYYCKQFAYFPATFGQGTKVEIKR
IL-1β IC50 (human IL-1β [3]): 0.01 nM and 0.02 nM and 0.03 nM
MRC-5 IL-1β neutralization potency (human IL-1β [1]): ~0.03 nM

Next, values leading:

MRC-5 IL-1β neutralization potency (human IL-1β [1]): ~0.35 nM
B1: ABT2-108-605/ABT1-122 hu IgG1/K wt (bispecific antibody, V domains shown)
VH: EVQLLESGGGLVQPGGSLRLSCAASGFTFAEYTMMWVRQAPGKGLEWVSRIGQDGKNTYYREDVKGRFTISRDNSKNTLYLQMNSLRAEDTAVYYCAKYTGRVGVHHLFDYWGQGTLVTVSS
VL: DIQMTQSPSSLSASVGDRVTITCRASQPIWTELNWYQQKPGKAPKLLIYGSSSLQSGVPRFSGSGSGTDFTLTISSLQPEDFATYYCQQFAYFPATFGQGTKVEIKR

Kd (human IL-1β [4]): 54000 nM
MRC5 ND50 (human IL-1β [5]): 770 nM
B3: ABT2-42 (other)
VL: DIQMTQSPSSLSASVGDRVTITCRASQYIEKWLTWYQQKPGKAPTLLIYRGSLLQSGVPSRFSGSGSGTDFTLTISSLQPEDFATYYCQQTEYWPFTFGQGTKVEIKR
notes: VK dAb

Kd (human IL-1β [4]): 28 nM
MRC5 ND50 (human IL-1β [5]): 266 nM
B7: ABT2-65 (other)
VH: EVQLLESGGGLVQPGGSLRLSCAASGFTFEDYQMGWVRQAPGKGLEWVSSISAMGNRTYYADSVKGRFTISRDDSKNTLYLQMNSLRAEDTAVYYCAKNLVRTQSKMWMFDYWGQGTLVTVSS
notes: VH dAb

MRC5 ND50 (human IL-1α [7]): 15 µM
B8: ABT1-6 (other)
VH: EVQLLESGGGLVQPGGSLRLSCAASGFTFGAYDMQWVRQAPGKGLEWVSSINKSGALTSYADSVKGRFTISRDNSKNTLYLQMNSLRAEDTAVYYCAKGWASFDYWGQGTLVTVSS

MRC5 IL-1α (human IL-1α [10]): 8 nM
MRC5 IL-1β (human IL-1β [11]): 0.042 nM
IC50 (human IL-1α [12]): 0.54 nM
IC50 (human IL-1β [13]): 0.071 nM
B13: ABT2-108-538x/ABT1-95-15 huIgG1/K wt (bispecific antibody, V domains shown)
VH: EVQLLESGGGLVQPGGSLRLSCAASGFTFADEGMMWVRQAPGKGLEWVSRITYSGKNTYYADSVKGRFTISRDNSKNTLYLQMNSLRAEDTAVYYCAKYTGRILGHHLFDYWGQGTLVTVSS
VL: DIQMTQSPSSLSASVGDRVTITCRASQPIVRNLRWYQQKPGKAPKLLIYSSSYLEPGVPSRFSGSGSGTDFTLTISSLQPEDFATYHCQQGYRWPVTFGQGTKVEIKR
notes: hu IgG1/K wt

Kd (human IL-1α [9]): 40 nM
Kd (human IL-1α [14]): 20 to 42 nM
B14: ABT1-95-1 (other)
chain: DIQMTQSPSSLSASVGDRVTITCRASQPIHGNLRWYQQKPGKAPKLLIYNISNLQSGVPSRFSGSGSGTDFTLTISSLQPEDFATYHCQQGYRWPVTFGQGTKVEIKR

Kd (human IL-1α [9]): 40 nM
Kd (human IL-1α [14]): 32 to 42 nM
B18: ABT1-95-2 (other)
VL: DIQMTQSPSSLSASVGDRVTITCRASQPIHGNLRWYQQKPGKAPKLLIYSSSYLQSGVPSRFSGSGSGTDFTLTISSLQPEDFATYYCQQGYRWPVTFGQGTKVEIK
notes: dAb, Vκ, to IL-1α

IL-1α IC50 (human IL-1α [2]): 40 nM
IL-1β IC50 (human IL-1β [3]): 8 nM
MRC-5 IL-1β neutralization potency (human IL-1β [1]): ~8 nM
MRC5 IL-1α (human IL-1α [10]): 80 nM
MRC5 IL-1β (human IL-1β [11]): 8 nM
B19: ABT2-108/ABT1-122-511 hu IgG1/K wt (bispecific antibody, V domains shown)
VH: EVQLLESGGGLVQPGGSLRLSCAASGFTFAEYTMMWVRQAPGKGLEWVSRIGQDGKNTYYADSVKGRFTISRDNSKNTLYLQMNSLRAEDTAVYYCAKYTGRVGVHHLFDYWGQGTLVTSS
VL: DIQMTQSPSSLSASVGDRVTITCRASQPIWTELNWYQQKPGKAPKLLIYGSSSLQRGVPSRFSGSGSGTDFTLTISSLQPEDFATYYCKQFAYFPATFGQGTKVEIKR

IL-1β IC50 (human IL-1β [3]): 15 nM and 20 nM and 40 nM
MRC-5 IL-1β neutralization potency (human IL-1β [1]): ~15 nM
B20: ABT2-108/ABT1-122 hu IgG1/K wt (bispecific antibody, V domains shown)
VH: EVQLLESGGGLVQPGGSLRLSCAASGFTFAEYTMMWVRQAPGKGLEWVSRIGQDGKNTYYADSVKGRFTISRDNSKNTLYLQMNSLRAEDTAVYYCAKYTGRVGVHHLFDYWGQGTLVTSS
VL: DIQMTQSPSSLSASVGDRVTITCRASQPIWTELNWYQQKPGKAPKLLIYGSSSLQSGVPRFSGSGSGTDFTLTISSLQPEDFATYYCQQFAYFPATFGQGTKVEIKR
